Reference: patent US20260250421A1

Columns and labels:
[1] = molecular target: human PTK7 on human cancer cell lines (human) (UniProt Q13308); assay: flow cytometry, NCI-H292 cells, isotype control
[2] = molecular target: human PTK7 on human cancer cell lines (human) (UniProt Q13308); assay: flow cytometry, HCC1954 cells, isotype control
[3] = molecular target: dog PTK7 on dog cancer cell lines (dog); assay: flow cytometry, CMT-U27 dog cells, isotype control
[4] = molecular target: dog PTK7 on dog cancer cell lines (dog); assay: flow cytometry, D-17 dog cells, isotype control
[5] = molecular target: human PTK7 on human cancer cell lines (human) (UniProt Q13308); assay: flow cytometry, HCT116 cells, isotype control
[6] = molecular target: human PTK7 on human cancer cell lines (human) (UniProt Q13308); assay: flow cytometry, A-431 cells, isotype control
[7] = molecular target: human PTK7 on human cancer cell lines (human) (UniProt Q13308); assay: flow cytometry, NCI-N87 cells, isotype control
[8] = molecular target: human PTK7 on human cancer cell lines (human) (UniProt Q13308); assay: flow cytometry, PC-3 cells, isotype control
[9] = molecular target: human PTK7 on human cancer cell lines (human) (UniProt Q13308); assay: flow cytometry, SK-OV-3 cells, isotype control
[10] = molecular target: human PTK7 on human cancer cell lines (human) (UniProt Q13308); assay: flow cytometry, NCI-H226 cells, isotype control
[11] = molecular target: human PTK7 on human cancer cell lines (human) (UniProt Q13308); assay: flow cytometry, BT-20 cells, isotype control
[12] = molecular target: human PTK7 on human cancer cell lines (human) (UniProt Q13308); assay: flow cytometry, NCI-H358 cells, isotype control
[13] = molecular target: human PTK7 on human cancer cell lines (human) (UniProt Q13308); assay: flow cytometry, NCI-H520 cells, isotype control

Chain of human PTK7 on human cancer cell lines (human) (Q13308 31-1070 limits assumed): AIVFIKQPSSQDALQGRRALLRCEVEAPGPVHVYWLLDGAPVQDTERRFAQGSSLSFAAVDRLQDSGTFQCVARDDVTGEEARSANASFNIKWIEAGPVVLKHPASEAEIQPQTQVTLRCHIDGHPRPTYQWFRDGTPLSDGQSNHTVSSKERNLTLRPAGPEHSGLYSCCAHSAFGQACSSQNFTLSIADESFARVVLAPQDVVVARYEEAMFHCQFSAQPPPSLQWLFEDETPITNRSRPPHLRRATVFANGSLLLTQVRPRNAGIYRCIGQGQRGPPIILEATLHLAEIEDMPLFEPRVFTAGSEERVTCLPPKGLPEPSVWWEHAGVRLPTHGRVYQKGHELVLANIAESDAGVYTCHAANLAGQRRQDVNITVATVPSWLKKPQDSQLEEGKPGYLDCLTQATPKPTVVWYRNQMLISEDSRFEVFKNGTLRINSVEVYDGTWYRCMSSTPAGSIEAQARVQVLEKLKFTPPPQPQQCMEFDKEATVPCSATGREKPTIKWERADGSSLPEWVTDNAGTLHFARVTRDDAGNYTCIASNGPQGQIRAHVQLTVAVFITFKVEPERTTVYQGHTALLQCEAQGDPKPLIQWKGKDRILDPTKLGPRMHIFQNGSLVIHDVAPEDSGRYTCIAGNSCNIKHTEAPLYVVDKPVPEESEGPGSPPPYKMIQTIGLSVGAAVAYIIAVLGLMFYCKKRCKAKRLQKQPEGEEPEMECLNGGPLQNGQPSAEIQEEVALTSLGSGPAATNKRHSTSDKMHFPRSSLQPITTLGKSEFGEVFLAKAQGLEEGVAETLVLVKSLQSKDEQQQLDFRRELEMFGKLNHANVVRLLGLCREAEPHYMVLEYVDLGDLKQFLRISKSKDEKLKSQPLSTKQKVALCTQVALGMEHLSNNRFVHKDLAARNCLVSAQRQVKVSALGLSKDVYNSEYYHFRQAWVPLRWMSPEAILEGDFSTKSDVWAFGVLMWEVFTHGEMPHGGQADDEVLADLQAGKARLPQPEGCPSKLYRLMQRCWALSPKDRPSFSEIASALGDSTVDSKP

Human IgG1 (ISO control) (antibody) showed an MFI [1] of 2230, an MFI [2] of 6340 and an MFI [3] of 1650. It also gave an MFI [4] of 3520, an MFI [5] of 3110 and an MFI [6] of 4630. The MFI [7] was 2850, the MFI [8] was 3690 and the MFI [9] was 3860. It also gave an MFI [10] of 9840, an MFI [11] of 5920 and an MFI [12] of 3360. For the same substance, the MFI [13] was 2420.
